Experiments:
CD94/NKG2C = CD94/NKG2C (UniProt Q13241); test: SPR steady state, Biacore T200, pMHC single chain trimer immobilized, CD94/NKG2C analyte
CD94/NKG2A = CD94/NKG2A (UniProt Q13241); test: SPR steady state, Biacore T200, pMHC single chain trimer immobilized, CD94/NKG2A analyte

Kd (CD94/NKG2C) [µM]	Kd (CD94/NKG2A) [µM]	Substance
15.6	4.1	AKAP6388-396 peptide-HLA-E complex (single chain trimer) (from UniProt P61769 21-119; P13747 22-297) (peptide-MHC)
1.8	0.8	BFAR263-271 peptide-HLA-E complex (single chain trimer) (from UniProt P61769 21-119; P13747 22-297) (peptide-MHC)
9.8	3.3	CREB3L1419-427 peptide-HLA-E complex (single chain trimer) (from UniProt P61769 21-119; P13747 22-297) (peptide-MHC)
92.4	28.1	GTF3C5293-301 peptide-HLA-E complex (single chain trimer) (from UniProt P61769 21-119; P13747 22-297) (peptide-MHC)
16	12.1	PISD55-63 peptide-HLA-E complex (single chain trimer) (from UniProt P61769 21-119; P13747 22-297) (peptide-MHC)

— patent publication US20240092835A1, “NOVEL PEPTIDES CAPABLE OF ALTERING NK CELL ACTIVITY” (Massachusetts Institute of Technology, priority 2022, published 2024)
